In patent publication US5688911A, “Trk neurotrophin binding motifs” (priority 1995, dated 1997):
No end group written: not given here.

Legend:
[1] = target: T1, rat TrkB (Rattus norvegicus, UniProt Q63604); settings: mouse NIH 3T3 fibroblasts expressing rat TrkB; cited from earlier work
T1 construct: host or cells: mouse NIH 3T3 fibroblasts (transfected)

[2] = target: TrkB receptors; settings: non-neuronal cells ectopically expressing TrkB; read-out: affinities; cited from earlier work
[3] = target: T2, NT-4 (Xenopus laevis, UniProt P24727); experiment: Qualitative binding assay, receptor affinity, 125I-NT-4; parameters: key to 125I-Neurotrophin NTA binding (qualitative): +neurotrophin binding; -no neurotrophin binding detectible
T2 sequence (P24727 114-236): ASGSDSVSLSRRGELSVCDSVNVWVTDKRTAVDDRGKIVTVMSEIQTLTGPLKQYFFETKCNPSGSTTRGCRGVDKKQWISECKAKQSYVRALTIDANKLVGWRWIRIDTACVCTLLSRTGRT

[4] = target: T3, NGF (Mus musculus, UniProt P01139); experiment: Qualitative binding assay, receptor affinity, 125I-NGF; parameters: key: +neurotrophin binding; -no neurotrophin binding detectible; settings: Table 2
T3 construct: Mouse submaxillary gland NGF-β, was purchased from Sigma Immuno Chemicals; purchased Amersham (125I-NGFβ); Sigma Immuno Chemicals (unlabelled NGF-β); host or cells: mouse submaxillary gland

[5] = target: T4, NT-3 (Mus musculus, UniProt P20181); experiment: Qualitative binding assay, receptor affinity, 125I-NT-3; parameters: key: A "+" indicates binding of the neurotrophin in a qualitative binding assay using receptor affinity columns (no Kd determined); A "-" indicates that no binding of the neurotrophin to the respective receptor module could be detected
T4 sequence (P20181 140-258): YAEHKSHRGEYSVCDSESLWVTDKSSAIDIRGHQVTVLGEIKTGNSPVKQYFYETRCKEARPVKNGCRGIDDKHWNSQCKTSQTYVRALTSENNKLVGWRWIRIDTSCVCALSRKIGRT

[6] = target: T5, BDNF (Mus musculus, UniProt P21237); experiment: Qualitative binding assay, receptor affinity, 125I-BDNF; parameters: key: A "+" indicates binding of the neurotrophin in a qualitative binding assay using receptor affinity columns (no Kd determined); A "-" indicates that no binding of the neurotrophin to the respective receptor module could be detected
T5 sequence (P21237 131-249): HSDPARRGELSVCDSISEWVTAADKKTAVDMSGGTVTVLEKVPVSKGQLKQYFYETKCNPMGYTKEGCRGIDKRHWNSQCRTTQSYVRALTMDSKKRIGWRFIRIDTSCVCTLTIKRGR

T1 sequence (Q63604 32-821): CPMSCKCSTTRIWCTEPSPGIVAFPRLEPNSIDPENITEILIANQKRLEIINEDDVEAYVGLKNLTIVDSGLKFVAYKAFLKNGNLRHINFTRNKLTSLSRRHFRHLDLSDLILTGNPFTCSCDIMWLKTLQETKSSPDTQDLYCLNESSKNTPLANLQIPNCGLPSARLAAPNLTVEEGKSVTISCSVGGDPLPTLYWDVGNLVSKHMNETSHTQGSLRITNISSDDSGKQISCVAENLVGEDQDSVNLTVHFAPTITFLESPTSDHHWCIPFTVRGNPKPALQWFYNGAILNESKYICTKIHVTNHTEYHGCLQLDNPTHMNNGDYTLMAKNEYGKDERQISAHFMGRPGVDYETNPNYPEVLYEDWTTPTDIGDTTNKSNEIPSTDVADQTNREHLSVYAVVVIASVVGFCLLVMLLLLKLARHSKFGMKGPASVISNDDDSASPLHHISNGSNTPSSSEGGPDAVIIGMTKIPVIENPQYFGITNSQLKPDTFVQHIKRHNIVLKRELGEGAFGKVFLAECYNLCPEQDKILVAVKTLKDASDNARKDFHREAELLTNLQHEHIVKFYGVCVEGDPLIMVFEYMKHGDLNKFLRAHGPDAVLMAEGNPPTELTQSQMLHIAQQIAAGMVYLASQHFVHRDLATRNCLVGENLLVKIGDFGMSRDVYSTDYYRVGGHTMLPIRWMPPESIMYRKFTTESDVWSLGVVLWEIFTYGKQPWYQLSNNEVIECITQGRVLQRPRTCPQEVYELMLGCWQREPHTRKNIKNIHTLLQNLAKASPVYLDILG
T3 sequence (P01139 122-241): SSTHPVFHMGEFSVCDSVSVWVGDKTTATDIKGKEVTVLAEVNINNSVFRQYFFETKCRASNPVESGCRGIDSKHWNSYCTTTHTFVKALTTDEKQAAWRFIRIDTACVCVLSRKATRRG

NT-3: neurotrophin 3; iodinated form in binding studies
Kd [1]: ~1.3 nM
Kd [2]: ~1 nM

TIKNSGLRSIQPRAFAKNPHLRYI (SEQ ID NO:3) (TIKNSGLRSIQPRAFAKNPHLRYI) [LRM2 of TrkC, 24 amino acid second leucine rich motif of TrkC]
binding of neurotrophin-4 ([3]; data not shown): found to bind neurotrophin-4

TIVDSGLKFVAYKAFLKNGNLRHI (SEQ ID NO: 5) [TrkB L2]
125I-Neurotrophin NGF binding (qualitative) [4]: -
125I-Neurotrophin NTA binding (qualitative) ([3]; Table 2): +

TIVKSGLRFVAPDAFHFTPRLSHL (SEQ ID NO: 4) (TIVKSGLRFVAPDAFHFTPRLSHL; also: MBP fusion partner) [TrkA L2, isolated 24 amino acid second leucine-rich motif of rat TrkA (Thr97-Leu120), MBP fusion]
NT-3 binding (qualitative) [5]: -
BDNF binding (qualitative) [6]: -

B1: BDNF: Brain-derived neurotrophic factor, a neurotrophin; iodinated form in binding studies (protein, UniProt P23560 19-247, looked up)
Neurotrophic factor BDNF …: APMKEANIRGQGGLAYPGVRTHGTLESVNGPKAGSRGLTSLADTFEHVIEELLDEDQKVRPNEENNKDADLYTSRVMLSSQVPLEPPLLFLLEEYKNYLDAANMSMRVRRHSDPARRGELSVCDSISEWVTAADKKTAVDMSGGTVTVLEKVPVSKGQLKQYFYETKCNPMGYTKEGCRGIDKRHWNSQCRTTQSYVRALTMDSKKRIGWRFIRIDTSCVCTLTIKRGR
modifications: 125I label
Kd [1]: ~1.8 nM
Kd [2]: ~1 nM
